Measured values taken from paper PMC9696579 (Nature structural & molecular biology, 2022).
Where no end group is shown, it is not given here. 3xPEG = linker of three PEG units

How the values were obtained:
[1] = target: human PKA-Cα (PKA catalytic subunit alpha), purified, used in fluorescence polarization (human, UniProt P17612 1-351); assay: fluorescence polarisation
[2] = target: mouse PKA-Cα (PKA catalytic subunit alpha), purified (mouse, UniProt P05132 1-351); assay: fluorescence polarisation

B1: FAM-labeled standard SMO PKI peptide (SMO residues 615–638) (peptide)
peptide: {FAM-3xPEG}-SADVSSAWAQHVTKMVARRGAILP
In the case of B1, the Kd [1] is reported as 823 nM and the Kd [2] is reported as 911 nM.
